This series deals with the molecule itself. Put plainly: AUC; sedimentation velocity, 25 °C, 48,000 rpm, 50 μM protein, pH 2.5 buffer with 0.3 M NaCl, absorbance at 280 nm, SEDFIT.

The values that follow come from article PMC4773402, “Comparison of the aggregation of homologous β2-microglobulin variants reveals protein solubility as a key determinant of amyloid formation” (Journal of Molecular Biology, 2016).

B1: mouse β2-microglobulin (natural protein, UniProt P01887 21-119, looked up)
chain: IQKTPQIQVYSRHPPENGKPNILNCYVTQFHPPHIEIQMLKNGKKIPKVEMSDMSFSKDWSFYILAHTEFTPTETDTYACRVKHASMAEPKTVYWDRDM
notes: β2-microglobulin, mouse; In the AUC the protein was acid-unfolded at pH 2.5; also called mβ2m; source: expressed and prepared as described previously [47]; purified (anion exchange at pH 8.5, gel filtration), lyophilised
For B1, the binding result is given as “binds”.
